experiment: soluble on expression in E. coli; label from the status in PepcDB or PDB records

Sequence	soluble on expression in E. coli
MRRKNLFWDDVYKGTPPWDLDHPQPAFEALIKNGEIKPGRALDIGCGRGENAIILAMNGCDVIGIDLAENAISDAKAKATERHVKVKFVVEDALQMNRLFEEGEFDVVIDSGLFHVMMDEQRRVFAQQVHRVLREGGKYFMLCFSDKEPGEYELPRRLSKAEIESTFSPVFDITYIKEAVFDSLLSPSRRKAYLLSATRSLEHHHHHH	not soluble
MNDDKDVVIDQIYYISTDPSATTYPTTFSVSLVDNSVAGRPFFYVVGKSTMRVDRNTTLRVEEDSKLVEKYNETYGKKYLPFPEGTYSFSTNEVTINQGDNFSSDTIFISFSNWDKLSKIDKYLLPVSLKAVDDKGAVSMDRNLIYFIADFSTTNTGYNKPAAWKPLDRTDWDVSFSYAYGYDEAQFGGRLAVDGDVSTTWFTWGVVSAGECWWATTLPAPTHLTGFSLTRQTTFGSSYNVREAKVKVKKEGDTEWTEAGLFRFGSFKGNDPQYAVFIPAVENVKEFRIDIVSPADFTGFAELDLYQLEHHHHHH	not soluble
IHVNSKEEAIISLVDVVSKEGYLIDKNQFLKDVLKREETLSTYIGHGIGLPHSQSVGVKNSCITIGKLDTPIEWTEEGEKVDLIFLISVTKDNENNLHLKILSKLARLLMHESFRNQIRCSDEQTVYNLIKEKIEE	not soluble
SNAMKILLIGASGTLGSAVKERLEKKAEVITAGRHSGDVTVDITNIDSIKKMYEQVGKVDAIVSATGSATFSPLTELTPEKNAVTISSKLGGQINLVLLGIDSLNDKGSFTLTTGIMMEDPIVQGASAAMANGAVTAFAKSAAIEMPRGIRINTVSPNVLEESWDKLEPFFEGFLPVPAAKVARAFEKSVFGAQTGESYQVY	soluble
MAKYCLKKTSKRVSCAKRYKIEKKVRDHNRKVKKEAKKNGTTNKKEKTISVPNSCPFKEEILVQAEQEREKIKVRQEAAKEAAKIHRIEKRKNNLPANFESMVAKASKQGTEFDKKVASAAEHEKFNTLDDKTIKAYASEVRKTVEIADVIIQVLDARDPLGSRSKSVEDQVLKGGKRLVLLLNKIDLVPRENVQKWLEYLRGQFPTIAFKASTQEQKSNIGRFNSAILNNTETSKCVGADIVMKILANYCRNKDIKTSIRVGVVGFPNVGKSSVINSLKRRKACNVGNLPGITKEIQEVELDKNIRLIDSPGVILVSQKDLDPIEVALKNAIRVDNLLDPIAPVHAILRRCSKETIMLHYNLADFNSVDQFLAQLARRIGKLRRGARPDVNAAAKRVLNDWNTGKLRYYTHPPEQGTAKEDIVVPAEVVSQFSKEFDIDAIAEEQNQIVEGLPMESDIIAPHNSDEEEDDDDEMETDVNEKKQTVTSGRKVKGPTKDDDKPVLPESLALEGNVQLNKLIKTAIKKQKKKSKKTANRADKLSDSLGNMLGGDAMEM	not soluble
MSLDNPNSSIFADLLAKASELENIIVTLQHKIQGGYYFLNDIEIISEDDARNFDVELVRLKGICNHMQRYNTKAKMRNIDWPIDVVKTAMTETRSKVFETLDLMKELDGFRDLVSYLRIALSNVNDNDLKTEIISSIDGIKEVINKGKQARDAYKLKLEALKDRYATWYMEAYLKAHISEIDHGKKSAVMLSTEKQLCDIIKNASFINPSRYDNWLRKMNLLKVVNSSVNKNAILSVPTSVDGFNPSMQKDELPELEDLKDELKEIYAEYEQGFHDALEDPTILRNKEMLTQEERSTIQQFIDGNITLNPQYARILIDIINKLQRSFTKVEINHNEMLKIFSRPMTKQQALDALAAYIDNHSRGHKPEDIRIIVKEGHHHHHH	soluble
VRGLLRVVGVRIEPGDHMLAIRDEIAGAIALGHSQGAVEKEDRDRLLGALDLSERTVEEIMRHRSQIEMIDADKPSAEVIAQVLASPHTRIPLYRGDHENILGIIHAKDLLREVSRLMRTGSTGALDELDILAVAMKPYFVPETTPLDEQMRQFLKRRTHFALVVDEYGALKGLITLEDIIEEIVGEINDEFDIAQEMTLKRADTGDYLVDGAMTI	not soluble
MVPPITSDEFCETSGCFGDSANLHTTLERLKININSDAKKLVDTNGDLKKHQRFLRIAKVTSLRSKDPNTQVGCVIVDKDNCIVSVGYNGFPIGVDDDVFRWDKEDPEDNKHLYVVHAEMNAIINKRCTTLHDCTVYVTLFPCNKCAQMLIQSRVKKVYFLENRDELAFRASKKMLDHARLPYEQIVMPQEAYVIEL	not soluble

Reference: the DeepSol protein solubility set
